One protein from article doi:10.1101/2023.06.02.543457 (bioRxiv, 2023) can be followed below.

This series deals with the molecule itself. As to the kind of experiment: cryo-EM structure.

B1: Rsph16 (natural protein, mouse, UniProt Q80Y75 1-316, looked up)
chain: MGLDYYAVLQVTRNSEDAQIKKAYRKLALKNHPLKSSEPGAPEIFKQIAEAYDVLSDPVKRGIYDKFGEEGLKGGIPLEFGSQTPWTTGYVFHGNPDKVFHEFFGGDNPFSEFFDAEGNDIDLNFGGLWGRGVQKQDPPIERDLYLSLEDLFFGCTKKIKISRRVLNEDRYSSTIKDKILTIDVRPGWRQGTRITFEKEGDQGPNIIPADIIFIVKEKLHPRFRREHDNLFFVYPIPLGKALTCCTVEVKTLDDRLLNIPINDIVHPKYFKIVPGEGMPLPENPSKKGDLFIFFDIQFPTRLTPQKKQMLRQALLT
A word on the stoichiometry N: it is the number of molecules, sites or subunits per partner or assembly. Consider B1, for which the “stoichiometry N” value was 2.
